By Kd is commonly meant the constant that tells how readily two partners part at equilibrium. The low end stands for higher affinity, the high end for lower affinity.

We go through 2 substances from paper PMC8967061.

The target in the test is Factor H domains 19-20 (human) (UniProt P08603). The test is described as follows: MST; FH19-20 labelled with RED-tris-NTA dye (300 nM stock, mixed 1:1 with ligand), FhbA proteins titrated, PBS/0.025% Tween-20, 22 C.
Sequence of Factor H domains 19-20 (human) (P08603 1104-1231): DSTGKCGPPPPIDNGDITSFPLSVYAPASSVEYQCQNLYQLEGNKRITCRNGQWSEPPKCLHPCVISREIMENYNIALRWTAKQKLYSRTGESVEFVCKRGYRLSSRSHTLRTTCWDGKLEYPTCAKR

“BhFhbA Phe154Ala (from UniProt W5SB08 44-202) (domain or fragment)” gave a Kd of 6 µM.

In turn, “FhbA homologue from Borrelia duttonii, wild type (natural protein)” showed a dissociation constant Kd of 1.06 µM.
